According to IntAct's records for PubMed 26948053:

B1: N-terminal EF-hand calcium-binding protein 3 (Homo sapiens), Q96P71-2 (parent)
chain: MACAGLLTVCLLRPPAPQPQPQTPRHPQLAPDPGPAGHTLFQDVFRRADKNDDGKLSFEEFQNYFADGVLSLGELQELFSGIDGHLTDNLETEKLCDYFSEHLGVYRPVLAALESLNRAVLAAMDATKLEYERASKVDQFVTRFLLRETVSQLQALQSSLEGASDTLEAQAHGWRSDAESVEAQSRLCGSRRAGRRALRSVSRSSTWSPGSSDTGRSSEAEMQWRLQVNRLQELIDQLECKAPRLEPLREEDLAKGPDLHILMAQRQVQVAEEGLQDFHRALRCYVDFTGAQSHCLHVSAQKMLDGASFTLYEFWQDEASWRRHQQSPGSKAFQRILIDHLRAPDTLTTVFFPASWWIMNNN
partner: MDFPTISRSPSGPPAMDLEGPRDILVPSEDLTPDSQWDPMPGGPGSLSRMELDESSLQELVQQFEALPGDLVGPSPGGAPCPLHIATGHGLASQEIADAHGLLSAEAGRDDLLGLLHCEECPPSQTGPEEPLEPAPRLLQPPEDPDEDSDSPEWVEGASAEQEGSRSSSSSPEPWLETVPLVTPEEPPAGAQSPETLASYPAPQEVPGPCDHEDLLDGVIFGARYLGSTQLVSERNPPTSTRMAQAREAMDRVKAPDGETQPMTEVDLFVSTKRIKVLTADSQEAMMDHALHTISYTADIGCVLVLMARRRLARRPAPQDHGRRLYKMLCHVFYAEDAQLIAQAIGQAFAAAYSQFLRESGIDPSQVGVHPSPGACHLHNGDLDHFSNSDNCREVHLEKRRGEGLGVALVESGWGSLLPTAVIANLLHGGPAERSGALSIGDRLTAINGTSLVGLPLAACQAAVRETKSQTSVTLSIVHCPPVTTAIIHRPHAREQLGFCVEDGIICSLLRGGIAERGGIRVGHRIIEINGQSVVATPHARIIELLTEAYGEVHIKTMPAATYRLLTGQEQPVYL

Variants of: B1
Conditions: with apba3_human APBA3, O96018

effect of a mutation on the interaction	Variant
with no effect	H324A
